This is an account of results in article PMC9565474, “Evolution avoids a pathological stabilizing interaction in the immune protein S100A9” (Proceedings of the National Academy of Sciences of the …, 2022).

The data set deals with the molecule itself. The data set is described as follows: NMR structure; calcium-bound hS100A9/M63F, 0.5 to 1.0 mM dimer, 25 mM Tris, 100 mM NaCl, 10 mM CaCl2 (pH 7.4), 10% D2O, 25 °C or 37 °C; homodimer with chains A and B.

B1: hS100A9/M63F (natural protein, human, UniProt P06702 1-114, looked up)
chain: MTSKMSQLERNIETIINTFHQYSVKLGHPDTLNQGEFKELVRKDLQNFLKKENKNEKVIEHIFEDLDTNADKQLSFEEFIMLMARLTWASHEKMHEGDEGPGHHHKPGLGEGTP
notes: human S100A9, Uniprot P06702, Cys-free (C3S) background with M63F; 114 residues (residues 1 to 114 named in the NMR structure); 15N or 15N/13C labelled for NMR; also called human S100A9 M63F; F/F
In the case of B1, the binding result is “binds”.
